Test results: article PMC3461508
Values belong to the binder of their own block, whether it stands above or below them.

Molecular target: mitochondrial ribosome (S. cerevisiae (endogenous in W303))
Assay: co-sedimentation

percent bound to the ribosome: 20%
B1: Cbp6 (natural protein)
chain: MSSSQVVRDSAKKLVNLLEKYPKDRIHHLVSFRDVQIARFRRVAGLPNVDDKGKSIKEKKPSLDEIKSIINRTSGPLGLNKEMLTKIQNKMVDEKFTEESINEQIRALSTIMNNKFRNYYDIGDKLYKPAGNPQYYQRLINAVDGKKKESLFTAMRTVLFGK

percent bound to the ribosome: 20%
B2: Cbp3 (natural protein)
chain: ETAQDSPELLAKSSHLNSKPLDVSNKAPVKTAQNKIPLAHSKYESSKYELPKWKEALGELVIRAFHLDMDRVRAGPVAGSYYYKICKEQGLQYEDEPLSETAKYFYEDLKLPRTFSQWFQITVLHEWILFVRMRAMPFKYGRNYQQKLVDRTFSDIELRLFEEMKVNSGRIADQYLKDFNTQLRGAIFAYDEGFATDDGTLATAVWRNLFGGRKNIDMVHLESVVRYIYSQLYVLSRLSDREFATGKFKFVPPGVKVEKLTPKQEEELKAKTIAKYEALDKDPKTLPSERSRLSYTN
